# Test results as given in publication PMC4212957, “The serodominant secreted effector protein of Salmonella, SseB, is a strong CD4 antigen containing an immunodominant epitope presented by diverse HLA class II alleles” (Immunology, 2014).
# B1: SseB: Recombinant SseB protein of Salmonella, codon optimized, expressed in E. coli (protein, UniProt Q7BVH7 1-196, looked up)
# Secreted effector protein SseB: MSSGNILWGSQNPIVFKNSFGVSNADTGSQDDLSQQNPFAEGYGVLLILLMVIQAIANNKFIEVQKNAERARNTQEKSNEMDEVIAKAAKGDAKTKEEVPEDVIKYMRDNGILIDGMTIDDYMAKYGDHGKLDKGGLQAIKAALDNDANRNTDLMSQGQITIQKMSQELNAVLTQLTGLISKWGEISSMIAQKTYS
# modifications: recombinant, codon optimized, E. coli expressed
# Columns and labels:
# [1] = test system: draining lymph node cells of HLA-DR1 transgenic mice; test: Murine IFN-γ ELISpot, HLA-DR1 transgenic mice primed with SseB; conditions: mouse, in vivo
# Description: (§1) Mice transgenic for HLA-DR1 (that is, HLA-DRA1*0101/HLA-DRB1*0101) and HLA-DR4 (that is, HLA-DRA1*0101/HLA-DRB1*0401)[24]–[26] were bred and housed in the Centre for Biological Services at the Hammersmith campus, Imperial College London, UK, in accordance with Home Office regulations and College ethics review. Both transgenic lines are maintained on a C57BL/6 background as homozygotes for knockout of murine MHC Class II H2-Aβ.[27]
# (§2) HLA-DR1 or HLA-DR4 transgenic mice were primed, by subcutaneous injection into the footpad, with 25 μg of recombinant SseB protein administered as a 1 : 1 emulsion with TiterMax® Gold (CytRx Corporation, Los Angeles, CA). Ten days after priming, popliteal draining lymph nodes were harvested and stimulated, in triplicate, at 2 × 10^5 cells per well with 25 μg of SseB peptide or recombinant protein in pre-coated murine IFN-γ ELISpot plates (2BScientific, Upper Heyford, Oxfordshire, UK). Culture medium was RPMI-1640 containing 2 mM L-glutamine, 50 U/ml penicillin G, 50 μg/ml streptomycin sulphate, 50 μM β-mercaptoethanol and 10% fetal calf serum. Cells were cultured at 37° and in 5% CO2 for 72 hr before assay development using a biotinylated anti-IFN-γ antibody, a horseradish peroxidase detection antibody and TMB substrate (2BScientific). Developed plates were left to dry before spot counting using an AID ELISpot reader (Autoimmun Diagnostika GMBH). Positive epitopes for a given transgenic line were defined as those where more than half of assayed animals gave a greater number of spot-forming cells than 2 SD over the mean of the no protein/peptide control.
# (§3) Fig 1 Definition of HLA-DR specific T-cell epitopes in DR1 and DR4 transgenic mice. (a) HLA-DR1 (n = 5) and (b) HLA-DR4 (n = 6) mice were footpad primed with ssEB protein in combination with TiterMax® Gold adjuvant. Draining lymph node (DLN) cells were assayed by ELISpot at day 10 for interferon-γ (IFN-γ) T-cell responses to ssEB peptides and protein. A peptide was defined as containing a T-cell epitope for DR1 or DR4 HLA molecules if more than half of the mice assayed gave a greater number of spot-forming cells than 2 SD over the mean of the no peptide/protein control. The 2 SD value for each transgenic line is shown by a dotted line.
# [2] = test system: draining lymph node cells of HLA-DR4 transgenic mice; test: Murine IFN-γ ELISpot, HLA-DR4 transgenic mice primed with SseB; conditions: mouse, in vivo
# Description: as §1, §2, §3
# Salmonella SL1344 = conditions: C57BL/6 mice, immunization with two doses; cited from earlier work
# Description: There have been a limited number of studies aimed at exploring candidates from the S. Typhi immunome for serodiagnostic, serodominant or protective credentials with respect to B-cell or T-cell immunity.[16]–[19] Some candidate antigens have been successfully deployed to induce protective immunity against challenge in mice; these antigens include OmpL, SseB, SseD and CirA.[16],[18],[19] Antigen arrays have been informative: an array of 2724 Salmonella enterica serovar Typhi antigens, selected on the basis of key terms such as ‘outer membrane’ or ‘chaperone’, representing over 63% of the proteom ...
molecule,measurement,setting,value
B1,IFN-γ ELISpot recall response / CD4 epitope in HLA-DR1 transgenic mice,[1],highly immunogenic
same,IFN-γ ELISpot recall response / CD4 epitope in HLA-DR4 transgenic mice,[2],relatively large response
same,protection from oral challenge (mean survival time and tissue bacterial burden),Salmonella SL1344,substantial protection
